Source: patent EP4748847A1, “PEPTIDE COMPLEX HAVING VEGFR -2 AGONIST ACTIVITY” (Peptidream Inc, priority 2023, dated 2025)
Where two headings read alike, the source gives them in different places. *1 amine or outer side, *2 acyl side, *3 side chain or, on linkers, in order; H or OH if unused. Where a SMILES comes first, the peptide text is derived from it. Bridges are numbered along the chain shown (N, C = ends). Roman numbers before positions name the chains, in order. Primed or numbered codes have the meaning given here. Where no end group is shown, it is not given here. [ ]: non-standard residue; d: D form. CO(CH2CH2O)9CH2CH2CO = O=C(CCOCCOCCOCCOCCOCCOCCOCCOCCOCCC(=O)[*:2])[*:1]; PEG12 = NCCOCCOCCOCCOCCOCCOCCOCCOCCOCCOCCOCCOCCC(=O)O; hTyr = N[C@@H](CCc1ccc(O)cc1)C(=O)O; Cha = N[C@@H](CC1CCCCC1)C(=O)O; Chg = N[C@H](C(=O)O)C1CCCCC1; Tle = CC(C)(C)[C@H](N)C(=O)O; Ahp′ = not defined here

B1: Peptide complex Dimer Structure No. 29 (peptide)
peptide: {CH2CO}-WW[Tle]DVKDDNYF[hTyr]DCG-NH2
modifications: thioether N-14; not fully specified (residues 5, 6); also: dimer joined at Lys6 side chains by cPEG17c
B2: Peptide complex Dimer Structure No. 2 (peptide)
peptide: {CH2CO}-WWVDV[Ahp′]DDLYFVDCG
modifications: thioether N-14; reading uncertain; also: dimer joined at Gly15 C-termini by PEG12c-K-PEG12c
B3: Peptide complex Dimer Structure No. 33 (peptide)
peptide: {CH2CO}-WW[Tle]DVKDDLYF[hTyr]SCG-NH2
modifications: thioether N-14; also: homodimer: Lys6 joined to Lys6 of second copy by cPEG17c (Linker Structure No. 4)
B4: Peptide complex Dimer Structure No. 31 (peptide)
peptide: {CH2CO}-WW[Tle]DVKDDLYF[Chg]DCG-NH2
modifications: thioether N-14; not fully specified (residue 6); also: homodimer: Lys6 joined to Lys6 of second copy by cPEG17c (Linker Structure No. 4)
B5: Peptide complex Dimer Structure No. 5 (peptide)
peptide: {CH2CO}-WWVDV[Cha]DDLYFVDCG
modifications: thioether N-14; also: dimer: C-terminus joined to second copy by PEG12c-K-PEG12c
B6: Peptide complex Dimer Structure No. 42 (peptide)
peptide: {CH2CO}-WWVDVKDDLYFVDCG-NH2
modifications: thioether N-14; also: homodimer: Lys6 joined to Lys6 of second copy by cPEG17c (Linker Structure No. 4)
B7: Peptide complex Dimer Structure No. 14 (peptide)
peptide: {CH2CO}-WWVDVKDDLYFVDCG-NH2
modifications: thioether N-14; not fully specified (residue 6); also: homodimer: Lys6 joined to Lys6 of second copy by cPEG13c (Linker Structure No. 3)
B8: Peptide complex Dimer Structure No. 25 (peptide)
peptide: {CH2CO}-WW[Chg]DVKDDLYF[hTyr]DCG-NH2
modifications: thioether N-14; not fully specified (residue 6); also: homodimer: Lys6 joined to Lys6 of second copy by cPEG17c (Linker Structure No. 4)

Key:
VEGFR-2 [1] = biological target: T1, VEGFR-2 (Homo sapiens, UniProt P35968); assay: pVEGFR AlphaLISA assay (VEGFR-2 phosphorylation, p-Tyr1175) in HUVECs; assay type: cell-based; details: 10 minutes stimulation, % activity, maximum VEGF165a signal = 100%, unstimulated = 0%, peptide 10, 100 nM (dimer structures 2-41)
T1 construct: endogenous in cells; host or cells: HUVEC
Experimental: To evaluate the VEGFR-2 activation ability of the VEGFR-2 agonist peptides of the present invention, VEGFR-2 phosphorylation was verified. HUVECs were cultured using EGM™ -2 Endothelial Cell Growth Medium-2 BulletKit (LONZA; CC-3162). After detaching cells using Tryple (Thermo Fisher Scientific), they were seeded into a 96-well PDL-coated plate (Corning: 354461) at a density of 24,000 cells per well and cultured for 2 days. For starvation, the medium was replaced with EBM-2 medium (LONZA) containing 0.5% FBS (Thermo Fisher Scientific), 0.1% heparin (included with the above LONZA CC-3162), and 0.1% gentamicin (Nacalai), and the cells were cultured for 18 hours. Subsequently, Recombinant Human VEGF165a Protein (R&D Systems) or the peptide was added, and the cells were cultured in a CO2 incubator at 37°C. After 10 minutes of stimulation, cells were lysed using the Lysis Buffer included in the AlphaLISA SureFire Ultra VEGFR-2 (p-Tyr1175) Assay Kit (PerkinElmer) to lyse the cells. The procedure was performed according to the kit protocol, and signal detection was performed using a SpectraMax Paradigm multimode microplate reader (Molecular Devices). The obtained signals were analyzed using GraphPad Prism, and % activity was calculated with the maximum signal induced by VEGF165a set as 100% and the unstimulated control as 0%.
The VEGF165a concentration was evaluated at five points (0.08, 0.31, 1.25, 5, 20 nM) using 1/4-fold dilutions starting from 20 nM to determine the maximum value (100%). Peptide concentrations tested were: 3.2, 16, 80 nM for dimer structure number 1; 10, 100 nM for dimer structures numbers 2-41; and 1.25, 5, 20 nM for dimer structures numbers 42-57. […]
Peptides showing 50% or more activity at 10 nM were designated 2-A, those showing 50% or more activity at 100 nM were designated 2-B, and those showing 1% or more but less than 50% activity at 100 nM were designated 2-C.
Peptides showing 50% or more activity at 1.25 nM were designated 3-A, those showing 50% or more activity at 5 nM were designated 3-B, those showing 50% or more activity at 20 nM were designated 3-C, and those showing 1% or more but less than 50% activity at 20 nM were designated 3-D.

VEGFR-2 [2] = biological target: T2, VEGFR-2 (human, UniProt P35968 20-1356); assay: cell-based or functional assay
VEGFR-2 [3] = biological target: T2, VEGFR-2; assay: cell-based or functional assay; remark: listed apart in the source
VEGFR-2 [4] = biological target: T2, VEGFR-2; assay: cell-based or functional assay; remark: listed apart in the source

T2 sequence (P35968 20-1356): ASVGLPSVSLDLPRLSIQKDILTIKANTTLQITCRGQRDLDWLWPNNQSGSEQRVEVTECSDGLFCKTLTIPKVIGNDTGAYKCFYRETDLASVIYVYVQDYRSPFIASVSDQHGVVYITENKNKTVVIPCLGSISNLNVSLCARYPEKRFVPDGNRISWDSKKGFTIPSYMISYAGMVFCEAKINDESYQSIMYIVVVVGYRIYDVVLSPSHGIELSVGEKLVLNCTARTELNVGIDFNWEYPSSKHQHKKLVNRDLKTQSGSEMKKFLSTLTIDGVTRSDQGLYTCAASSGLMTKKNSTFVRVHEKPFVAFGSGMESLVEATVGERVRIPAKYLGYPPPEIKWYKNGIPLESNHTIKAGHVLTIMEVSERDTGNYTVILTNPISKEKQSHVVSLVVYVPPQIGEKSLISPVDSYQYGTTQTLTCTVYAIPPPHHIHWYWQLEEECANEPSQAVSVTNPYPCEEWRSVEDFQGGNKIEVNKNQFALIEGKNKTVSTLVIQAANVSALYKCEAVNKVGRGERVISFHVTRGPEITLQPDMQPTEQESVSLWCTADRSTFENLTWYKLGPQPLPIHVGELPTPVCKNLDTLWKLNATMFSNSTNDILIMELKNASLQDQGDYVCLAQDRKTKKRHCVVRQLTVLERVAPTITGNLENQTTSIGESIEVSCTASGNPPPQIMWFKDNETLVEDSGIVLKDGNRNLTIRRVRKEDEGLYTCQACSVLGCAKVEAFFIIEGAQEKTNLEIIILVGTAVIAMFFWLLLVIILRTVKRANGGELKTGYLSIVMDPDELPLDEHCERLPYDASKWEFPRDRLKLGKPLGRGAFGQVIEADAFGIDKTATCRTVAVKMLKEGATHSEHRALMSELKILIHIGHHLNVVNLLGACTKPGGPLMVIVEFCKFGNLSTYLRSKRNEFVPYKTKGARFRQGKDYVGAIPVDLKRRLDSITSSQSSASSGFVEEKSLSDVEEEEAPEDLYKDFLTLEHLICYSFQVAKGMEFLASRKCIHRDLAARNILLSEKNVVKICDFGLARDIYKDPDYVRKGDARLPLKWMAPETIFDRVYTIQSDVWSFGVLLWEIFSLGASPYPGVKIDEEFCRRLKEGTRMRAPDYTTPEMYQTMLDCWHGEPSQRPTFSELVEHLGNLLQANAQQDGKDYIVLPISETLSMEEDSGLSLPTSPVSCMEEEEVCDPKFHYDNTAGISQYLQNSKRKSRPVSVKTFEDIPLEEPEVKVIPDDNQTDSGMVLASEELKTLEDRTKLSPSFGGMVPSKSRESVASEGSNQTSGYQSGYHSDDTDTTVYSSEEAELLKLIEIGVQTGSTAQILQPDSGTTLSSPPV
T1 sequence (P35968 20-1356): as above

Row | Molecule | pVEGFR2 Assay Results (VEGFR-2 [1]) | pERK Assay Results (AlphaLISA p-Erk1/2, HUVEC) (VEGFR-2 [2]) | proliferation (HUVEC, CellTiter-Glo) (VEGFR-2 [3]) | pERK Assay Results (AlphaLISA p-Erk1/2, HUVEC) (VEGFR-2 [4])
1 | CC(C)C[C@@H]1NC(=O)[C@H](CC(=O)O)NC(=O)[C@H](CC(=O)O)NC(=O)[C@H](CCC(N)=O)NC(=O)[C@H](C(C)C)NC(=O)[C@H](CC(=O)O)NC(=O)[C@H](C(C)C)NC(=O)[C@H](Cc2c[nH]c3ccccc23)NC(=O)[C@H](Cc2c[nH]c3ccccc23)NC(=O)CSC[C@@H](C(=O)NCC(=O)NCCOCCOCCOCCOCCOCCOCCOCCOCCOCCOCCOCCOCCC(=O)NCCCC[C@H](NC(=O)CCOCCOCCOCCOCCOCCOCCOCCOCCOCCOCCOCCOCCNC(=O)CNC(=O)[C@@H]2CSCC(=O)N[C@@H](Cc3c[nH]c4ccccc34)C(=O)N[C@@H](Cc3c[nH]c4ccccc34)C(=O)N[C@@H](C(C)C)C(=O)N[C@@H](CC(=O)O)C(=O)N[C@@H](C(C)C)C(=O)N[C@@H](CCC(N)=O)C(=O)N[C@@H](CC(=O)O)C(=O)N[C@@H](CC(=O)O)C(=O)N[C@@H](CC(C)C)C(=O)N[C@@H](Cc3ccc(O)cc3)C(=O)N[C@@H](Cc3ccccc3)C(=O)N[C@@H](C(C)C)C(=O)N[C@@H](CO)C(=O)N2)C(N)=O)NC(=O)[C@H](CO)NC(=O)[C@H](C(C)C)NC(=O)[C@H](Cc2ccccc2)NC(=O)[C@H](Cc2ccc(O)cc2)NC1=O [compound 11] (I: {CH2CO}-WWVDVQDDLYFVSCG[PEG12]K-NH2 / II: {CH2CO}-WWVDVQDDLYFVSCG[PEG12]; amide I:17-II:C; thioether I:N-I:14, II:N-II:14) | 2-C (1% or more but less than 50% activity at 100 nM) |  |  | 
2 | CC(C)C[C@@H]1NC(=O)[C@H](CC(=O)O)NC(=O)CNC(=O)[C@H](CCC(N)=O)NC(=O)[C@H](C(C)C)NC(=O)[C@H](CC(=O)O)NC(=O)[C@H](C(C)C)NC(=O)[C@H](Cc2c[nH]c3ccccc23)NC(=O)[C@H](Cc2c[nH]c3ccccc23)NC(=O)CSC[C@@H](C(=O)NCC(=O)NCCOCCOCCOCCOCCOCCOCCOCCOCCOCCOCCOCCOCCC(=O)NCCCC[C@H](NC(=O)CCOCCOCCOCCOCCOCCOCCOCCOCCOCCOCCOCCOCCNC(=O)CNC(=O)[C@@H]2CSCC(=O)N[C@@H](Cc3c[nH]c4ccccc34)C(=O)N[C@@H](Cc3c[nH]c4ccccc34)C(=O)N[C@@H](C(C)C)C(=O)N[C@@H](CC(=O)O)C(=O)N[C@@H](C(C)C)C(=O)N[C@@H](CCC(N)=O)C(=O)NCC(=O)N[C@@H](CC(=O)O)C(=O)N[C@@H](CC(C)C)C(=O)N[C@@H](Cc3ccc(O)cc3)C(=O)N[C@@H](Cc3ccccc3)C(=O)N[C@@H](C(C)C)C(=O)N[C@@H](CC(=O)O)C(=O)N2)C(N)=O)NC(=O)[C@H](CC(=O)O)NC(=O)[C@H](C(C)C)NC(=O)[C@H](Cc2ccccc2)NC(=O)[C@H](Cc2ccc(O)cc2)NC1=O [compound 7] (I: {CH2CO}-WWVDVQGDLYFVDCG[PEG12]K-NH2 / II: {CH2CO}-WWVDVQGDLYFVDCG[PEG12]; amide I:17-II:C; thioether I:N-I:14, II:N-II:14) | 2-C (1% or more but less than 50% activity at 100 nM) |  |  | 
3 | B1 |  | ≥ 50 % activity at 10 nM | ≥ 50 % activity at 10 nM | 
4 | B2 |  |  | < 50 % activity at 100 nM | ≥ 50 % activity at 100 nM
5 | B3 |  | ≥ 50 % activity at 10 nM | ≥ 50 % activity at 10 nM | 
6 | B4 |  | ≥ 50 % activity at 10 nM | ≥ 50 % activity at 10 nM | 
7 | B5 |  |  | < 50 % activity at 100 nM | ≥ 50 % activity at 10 nM
8 | B6 |  | ≥ 50 % activity at 20 nM | ≥ 50 % activity at 1.25 nM | 
9 | {CH2CO}-WWVDVK(CO(CH2CH2O)9CH2CH2CO)DDLYFVDCG-NH2 (thioether N-14; also: dimer: Lys6 joined to Lys6 of second copy by cPEG9c) [Peptide complex Dimer Structure No. 13] |  |  | < 50 % activity at 100 nM | ≥ 50 % activity at 10 nM
10 | B7 |  |  | < 50 % activity at 100 nM | ≥ 50 % activity at 10 nM
11 | B8 |  |  | ≥ 50 % activity at 10 nM | ≥ 50 % activity at 10 nM
